Experimental data: patent US20240287172A1 (SCIRHOM, published 2024)

Key:
hiR2-FL-V434E-T7 = target: T1, hiR2-FL-V434E-T7 (human, UniProt Q6PJF5 1-856); experiment: FACS, MEF-DKO cells, 3 µg/ml
T1 sequence: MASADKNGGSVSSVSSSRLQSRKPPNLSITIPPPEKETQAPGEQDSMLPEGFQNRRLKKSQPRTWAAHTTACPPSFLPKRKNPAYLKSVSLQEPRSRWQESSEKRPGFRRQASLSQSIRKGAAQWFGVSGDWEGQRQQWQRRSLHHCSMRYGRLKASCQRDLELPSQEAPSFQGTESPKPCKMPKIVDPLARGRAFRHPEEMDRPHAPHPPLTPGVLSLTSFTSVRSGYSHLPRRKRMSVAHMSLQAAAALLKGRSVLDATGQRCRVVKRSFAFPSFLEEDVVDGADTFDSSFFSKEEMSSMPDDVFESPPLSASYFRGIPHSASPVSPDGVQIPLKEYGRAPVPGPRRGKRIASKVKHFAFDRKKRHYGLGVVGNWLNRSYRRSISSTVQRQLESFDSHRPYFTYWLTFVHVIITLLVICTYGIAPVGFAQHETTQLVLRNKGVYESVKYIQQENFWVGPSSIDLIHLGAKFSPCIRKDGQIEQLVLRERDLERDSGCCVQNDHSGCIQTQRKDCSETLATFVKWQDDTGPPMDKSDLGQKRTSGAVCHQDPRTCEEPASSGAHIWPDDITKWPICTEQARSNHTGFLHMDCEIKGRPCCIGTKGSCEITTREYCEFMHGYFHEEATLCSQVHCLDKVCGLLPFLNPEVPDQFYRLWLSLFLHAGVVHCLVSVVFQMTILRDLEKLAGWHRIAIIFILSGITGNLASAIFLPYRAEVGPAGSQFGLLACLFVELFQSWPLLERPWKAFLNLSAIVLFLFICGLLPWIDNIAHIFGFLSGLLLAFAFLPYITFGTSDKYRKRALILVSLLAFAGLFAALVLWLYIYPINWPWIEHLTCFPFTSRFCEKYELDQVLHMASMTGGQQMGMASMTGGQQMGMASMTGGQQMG
Excerpt: (§1) In brief, immortalized MEF-DKO-hiR2-FL-A431S-T7, MEF-DKO-hiR2-FL-V434E-T7, MEF-DKO-hiR2-FL-T436V-T7, MEF-DKO-hiR2-FL-Q437D-T7, MEF-DKO-hiR2-FL-L438S-T7, MEF-DKO-hiR2-FL-S448N-T7, MEF-DKO-hiR2-FL-I452V-T7, MEF-DKO-hiR2-FL-I464E-T7, MEF-DKO-hiR2-FL-D465A-T7, MEF-DKO-hiR2-FL-I477M-T7, MEF-DKO-hiR2-FL-K479Q-T7, MEF-DKO-hiR2-FL-G481P-T7, MEF-DKO-hiR2-FL-I483V-T7, MEF-DKO-hiR2-FL-E484H-T7, MEF-DKO-hiR2-FL-Q485S-T7, MEF-DKO-hiR2-FL-L486F-T7, MEF-DKO-hiR2-FL-V487I-T7, MEF-DKO-hiR2-FL-R489S-T7, MEF-DKO-hiR2-FL-E490A-T7, MEF-DKO-hiR2-FL-D492E-T7, MEF-DKO-hiR2-FL-L493R-T7, MEF-DKO-hiR2-FL-R495K-T7 and MEF-DKO-hiR2-FL-D496H-T7 cells were harvested with 10 mM EDTA in PBS, washed and resuspended in FACS buffer (PBS, 3% FBS, 0.05% sodium azide), and seeded in Nunc U-bottom 96-well plates (Thermo Fisher Scientific, USA) at approximately 1×10⁵ cells per well. To pellet cells and remove supernatants, the plates were centrifuged at 1,500 rpm and 4° C. for 3 minutes. For primary staining, cells were resuspended in 100 μl per well of either FACS buffer alone (controls) or the purified antibodies 3, 5, 16, 22, 34, 42, 43, 44, 48, and 50 of the invention at 3 μg/ml in FACS buffer and incubated on ice for 1 hour. Afterwards, plates were centrifuged at 1,500 rpm and 4° C. for 3 minutes and washed twice with 200 μl per well of FACS buffer. For secondary staining, cells were spun down and resuspended in 100 μl per well of PE-conjugated goat anti-mouse IgG F(ab′)2 detection fragment (Dianova, Germany) diluted 1:100 in FACS buffer. Protected from light, the cell suspensions were incubated on ice for 1 hour. Plates were then centrifuged at 1,500 rpm and 4° C. for 3 minutes and washed three times with 200 μl per well of FACS buffer. Finally, cells were resuspended in 150 μl per well of FACS buffer and analyzed using a BD Accuri™ C6 Plus flow cytometer (Becton Dickinson, Germany).

hiR2-FL-T436V-T7 = target: T2, hiR2-FL-T436V-T7 (human, UniProt Q6PJF5 1-856); experiment: FACS, MEF-DKO cells, 3 µg/ml
T2 sequence: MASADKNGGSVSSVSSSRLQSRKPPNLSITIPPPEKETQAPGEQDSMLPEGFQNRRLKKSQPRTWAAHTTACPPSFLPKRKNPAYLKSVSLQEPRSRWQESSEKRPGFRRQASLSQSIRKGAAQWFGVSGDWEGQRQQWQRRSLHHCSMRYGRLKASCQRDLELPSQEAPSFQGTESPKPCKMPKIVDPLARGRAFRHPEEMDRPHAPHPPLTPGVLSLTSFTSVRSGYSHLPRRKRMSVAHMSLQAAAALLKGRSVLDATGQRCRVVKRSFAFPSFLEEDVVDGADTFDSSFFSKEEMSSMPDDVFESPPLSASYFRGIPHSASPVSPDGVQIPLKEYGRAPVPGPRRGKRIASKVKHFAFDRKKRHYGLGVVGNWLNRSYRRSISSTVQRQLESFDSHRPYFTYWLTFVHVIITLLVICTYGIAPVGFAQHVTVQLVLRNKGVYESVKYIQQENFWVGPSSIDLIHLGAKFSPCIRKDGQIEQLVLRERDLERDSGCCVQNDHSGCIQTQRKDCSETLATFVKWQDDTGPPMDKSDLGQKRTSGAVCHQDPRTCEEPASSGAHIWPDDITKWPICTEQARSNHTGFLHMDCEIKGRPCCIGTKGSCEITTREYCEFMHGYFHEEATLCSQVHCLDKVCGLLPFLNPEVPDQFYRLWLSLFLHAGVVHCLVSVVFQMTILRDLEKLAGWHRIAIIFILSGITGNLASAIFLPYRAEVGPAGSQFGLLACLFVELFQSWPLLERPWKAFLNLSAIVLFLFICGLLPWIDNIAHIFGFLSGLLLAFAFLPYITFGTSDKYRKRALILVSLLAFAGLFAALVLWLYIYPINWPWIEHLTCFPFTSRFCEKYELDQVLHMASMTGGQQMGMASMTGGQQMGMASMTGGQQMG
Excerpt: as §1

Row | Binder | loss of binding vs wild type (hiR2-FL-V434E-T7) [%] | loss of binding vs wild type (hiR2-FL-T436V-T7) [%]
1 | antibody 48 (antibody, V domains shown, mouse IgG, kappa light chain; also called clone #48; purified antibody 48) VH: QVQLQQSGTELVRPGTSVKVSCKASGYAFTNYLIEWVKQRPGQGLEWIGVINPGSGFTKYNEKFKGKATLTADKSSSTVYMHLSSLTSEDSAVYFCARGLYRAMDYWGQGTSVTVSS VL: DIQMTQSPASQSASLGESVTITCLASQTIATWLAWYQQKPGKSPQLLIYGATTLADGVPSRFSGGGSGTKFSFKISSLQAEDFVSYYCQQLYSTPYTFGGGTKLEIK | ≥ 30 | ≥ 30
2 | antibody 50 (antibody, V domains shown, mouse IgG, kappa light chain; also called clone #50; purified antibody 50) VH: QVQLQQSGAELVRPGASVKVSCKASGYAFSNYLIEWVKQRPGQGLEWIGVINPGSGFTKYNEKFKGKATLTADKSSSTAYMQLSSLTSEDSAVYFCARGLYRAMDYWGQGTSVTVSS VL: DIQMTQSPASQSASLGESVTITCLASQTIGTWLAWYQQKPGKSPQLLIYAAASLADGVPSRFSGGGSGTKFSFKISSLQAEDFVNYYCQQIYSTPYTFGGGTKLEIK | ≥ 30 | ≥ 30
